Measured values taken from publication PMC9943652.

Molecular target: coreTFIIH (7-subunit: XPB, XPD, p62, p52, p44, p34, p8);XPG (human;human) (UniProt P19447+P18074+P32780+Q92759+Q13888+Q13889+Q6ZYL4+P28715)
Assay: EMSA

TTTTTTTTTTTTTTTTTTTTTTTTTTTTTTTTTTTTNTTTGCCTCGCTGCCGTCGCCA / TGGCGACGGCAGCGAGGC [Chol4]
binding signal (fold lower Kd than XPG alone) (cholesterol moiety at N (between S10 and S11), position 4 from ss/ds junction): 7

TTTTTTTTTTTTTTTTTTTTTTTTTTTTTNTTTTTTTTTTGCCTCGCTGCCGTCGCCA / TGGCGACGGCAGCGAGGC [Chol11]
binding signal (fold lower Kd than XPG alone) (cholesterol moiety at N (between S12 and S13), position 11 from ss/ds junction): 8
